Target: SARS-CoV-2 6P-mut7 spike protein (SARS-CoV-2) (UniProt P0DTC2)
Test: cryo-EM structure

Substance: COVA2-15 Fab
- stoichiometry N (Fab per spike trimer): 3
